Results from patent publication US20250289897A1, “LEPTIN RECEPTOR AGONISTIC ANTIBODY AS MONO OR COMBO THERAPIES TO TREAT OBESITY” (ELI LILLY AND COMPANY, priority 2024, published 2025).
Marks after values point to notes of the source that are not given here.

Target: T1, mutant LEPR-A409E (Homo sapiens, UniProt P48357, A409E)
T1 construct: expressed in transfected cells; host or cells: HEK293
T1 sequence (P48357 22-1165 A409E): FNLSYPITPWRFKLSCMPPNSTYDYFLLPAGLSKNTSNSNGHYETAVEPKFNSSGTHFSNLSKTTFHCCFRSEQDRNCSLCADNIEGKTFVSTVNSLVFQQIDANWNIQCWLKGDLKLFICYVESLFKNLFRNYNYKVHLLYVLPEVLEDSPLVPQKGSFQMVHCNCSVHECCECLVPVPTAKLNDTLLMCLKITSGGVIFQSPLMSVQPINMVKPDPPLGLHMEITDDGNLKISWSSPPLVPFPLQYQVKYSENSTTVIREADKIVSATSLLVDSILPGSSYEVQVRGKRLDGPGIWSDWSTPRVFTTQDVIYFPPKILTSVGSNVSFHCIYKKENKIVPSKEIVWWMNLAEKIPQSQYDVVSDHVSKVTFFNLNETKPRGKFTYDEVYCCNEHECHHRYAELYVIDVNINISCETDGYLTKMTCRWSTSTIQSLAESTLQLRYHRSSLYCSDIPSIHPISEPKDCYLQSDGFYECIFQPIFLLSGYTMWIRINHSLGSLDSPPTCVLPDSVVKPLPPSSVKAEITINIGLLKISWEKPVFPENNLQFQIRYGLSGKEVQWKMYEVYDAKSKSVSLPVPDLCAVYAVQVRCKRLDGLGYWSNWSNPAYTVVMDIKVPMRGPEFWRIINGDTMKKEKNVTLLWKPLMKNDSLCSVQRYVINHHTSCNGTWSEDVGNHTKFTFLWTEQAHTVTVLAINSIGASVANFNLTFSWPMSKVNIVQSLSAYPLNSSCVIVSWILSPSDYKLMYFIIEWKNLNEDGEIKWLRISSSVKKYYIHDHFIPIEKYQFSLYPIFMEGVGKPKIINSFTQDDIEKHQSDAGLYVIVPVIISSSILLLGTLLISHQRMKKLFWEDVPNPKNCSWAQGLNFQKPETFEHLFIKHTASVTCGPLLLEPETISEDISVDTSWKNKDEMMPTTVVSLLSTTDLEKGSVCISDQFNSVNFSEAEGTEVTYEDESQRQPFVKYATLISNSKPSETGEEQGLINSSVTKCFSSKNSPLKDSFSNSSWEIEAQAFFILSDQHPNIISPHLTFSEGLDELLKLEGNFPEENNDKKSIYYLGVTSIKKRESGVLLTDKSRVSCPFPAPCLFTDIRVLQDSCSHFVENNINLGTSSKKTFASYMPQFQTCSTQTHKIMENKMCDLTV
Assay: STAT3-Luciferase reporter assay in HEK293 cells that express hLEPR-A409E
Type: cell-based
Method: Missense mutation A409E in LEPR gene was associated with autosomal recessive early onset of obesity in human (Farooqi et al., 2007, N Engl J Med 356 (3): 237-247). […] To test whether the anti-LEPR antibodies can activate these mutant human LEPR receptors, the STAT3-Luciferase reporter assay was established using HEK293 cells that express hLEPR-A409E. These cells were cultured in growth medium DMEM/F12 (Gibco, #12430-054), 10% fetal bovine serum (FBS, Gibco, #10082-147), antibiotics (Gibco, #15240-062), Sodium Pyruvate (Gibco, #11360-070) and GlutaMax supplement (Gibco, #35050-061) in the presence of drug selection 250 μg/mL of Hygromycin (Invitrogen, #10687010) and 800 μg/mL of Geneticin (Corning, #30-234-C1).
Before plating the cells for luciferase assays, the poly-D-Lysine coated 96-well plates (Corning Inc, Bio Coat, #354651, Poly-D-Lysing coated) were rinsed once with phosphate buffered solution (PBS) and once by plating medium. Then, 20,000 to 24,000 STAT3-Luciferase reporter cells were seeded onto the poly-D-lysine 96-well plates in 100 μL/well plating medium consist of DMEM/F12 (3:1, Gibco, #93-0152DK), 10% fetal bovine serum (FBS, Gibco, #10082-147), 1x GlutaMax supplement (Gibco, #35050061) 20 mM HEPES (Gibco, #15630-080) and antibiotics (Gibco, 15240-062). After overnight culture at 37°° C. with 5% CO2, the culture medium was changed to 75 μL assay medium containing OPTI-MEM (Gibco, #31985-070) with 1% BSA (BSA Fraction V (7.5%), Gibco, #15260-037), 0.1% dialyzed fetal bovine serum (FBS, Gibco, #26400-044) for 1 hour at 37° C. with 5% CO2. Test articles were diluted into 25 μL assay medium and were added to each well. Cells were further incubated for 20 hours at 37° C. with 5% CO2. Cell lysing and One-Glo luciferase substrate solution (Promega, #E6120) were then added to each well, and relative luciferase units (RLUs) were measured on a ClarioStar plate reader. The concentration response curves were then plotted as raw RLU readings to the function of log drug concentrations. EC50 was calculated using GraphPad Prism software.

With “human leptin: recombinant human leptin protein (SEQ ID NO:27), positive control” the “Bottom (RLU)” value (LEPR-A409E STAT3-luciferase) was 451.8 RLU, the “Hill Slope” value (LEPR-A409E STAT3-luciferase) was 0.2011 and the “Top (RLU)” value (LEPR-A409E, top of curve projected by GraphPad Prism software) was 259289* RLU. The “activation of LEPR-A409E” value (STAT3-luciferase) was “did not activate”.
